According to patent US20240245805A1 (Orna Therapeutics, Inc., priority 2020, published 2024):

B1: Grusopivirus B (nucleic acid)
chain: GCCATCCGTAGGTTCTGGTAAGGTTCCATCAACTGTTGGGGCGCTAGTTGCTATGACCGCATTCACGGACGGATGATTTATAGTATCACCCAATCCGGGCACAACTTCTTTAGCCACTTCTTCCACATTACTAAGGGCTCTCTTGCCGAGTTTCAACGTCTAGTCCACGACACGGACCTTCCTACTTTTCTATCTTCTTATTTTCTCTACTAAATTGGTATCTGGTACTGAAGATATGCGGATTGTGATTTTGTGCCTGTCTAAACTAACCCTATTCTAGGGTTAGGTGGGTACCATATACTAATGGTGAACAGGATTACCTATGTATCCATTAGTCCCTATGGATCTGGCGACCCACAAACTCATGTTCATAGAGAGGCTAAGCTGAGTGCTCGCCGAATAAGCATTGCTTCAGGTGCCGACTATTGTCTGGAAACCACTCAGTGATAGCTATAGGGGGGGGCCCCGTAGCATCTGCCTTACTGCCTGATAGGGTGGCGGCTGGTCCATGAACATGCAGTAACCAGTTGACTTGAC
modifications: lipid formulation; Grusopivirus B
B2: Human enterovirus 109 (nucleic acid, listed as Enterovirus sp.)
DNA: TTTAAAACAGCCTGGGGGTTGTTCCCACCCCCAGGGCCCACTGGGCGTTAGTACTCTGGTATCGCGGTACCTTAGTATGCCTGTTTTATGTCTCCTTTCCCCCGCAACTTTAGAAGTAATCAAGTTATGGCTCAACAGTCGCCACACCCCCAGTGTGGTTCCGAGCAAGCACTTCTGTTCCCCGGTTGCGTCTTATATGCTGTGTGAACGGCAGAAAGGGACAATATCGTTATCCGCTCAACTACTACGGGAAGCCTAGTACCACCATGGATTGACCTGAAAGTTGCGTTCAGCGCACCCCCAGCGCAGCTCAGGCCGATGAGGCTCCGAATACCCCACGGGCGACCGTGTCGGAGCCTGCGTTGGCGGCCTGCCCACGTTGCAAAACGTGGGACGCTCATTTCATGACATGGTGCGAAGAGCCTACTGTGCTAGTTGAGAGTCCTCCGGCCCCTGAATGTGGATAATCCTAACCACTGAACCTACGGGCGCAAACCAGCGTCTGGTAGGCCGTAACGCGCAAGTCGGTGGCGGAACCAACTACTTTGGGTGTCCGTGTTTCCTTTTATCTTTTTGAATGTTTATGGTGACAATTGTTGTGTACAGTTGTTACCATAGTTTGCATTCAGAAATAAACCTAACACTTTCCAATTATTTGTTACA
B3: Tremovirus B (nucleic acid)
DNA: TTCAAATGGCCCCTGGGTTGATACCCAGTGGTCATTTGGACACTTTGGTAAGGAGGTGTAATTATCCTTCCCATGTGGAACCTAGTGCTTAGGTTTACTTTATATGTTCTTTGTTTGTCCTTTGTACTTTCTATCGGGCAATCTTGTTGTTCAATACAATATGTATTTGAACTGCCTAAGATAAATTCAGTTTTCAACCAACCCCTCTCTTGGGGTTGTGTCTTTCTTTCTTTCTTATATCCTCTTAAGCTGACTTACTTGCTAATCCGACTCCTCGTCAACGGGAGGGTAAAGCAGTATCACTAGGGTATTGTGATGTAGGAGAAAAAGTAAGTAGAGATAGTGCATGTAACGAAAGTGACTTGGTACTTTAAACTCTCTTAATCCCAAAGTGTGGTATTGGTCATGTTGGAGTAGGCTACGGGTGAAACTCCTTCACATTTAGTAATGTGTTCACACGCTAACGCTACGGTAGATGACAGACTAGGTCTTATTCTCAACGTAGGGGGACGGGTGTATGTTCATGATTAGCCACATATTAAGGTTTTGAGGGGCTGAGTCATATAAGTATGTGCATTAATTTCTGGTACTGGTCCCTGGGGACTGGCCCTTTTCTAGGTTGATTTTAGTTTCCCCAATTTTTAAAAACTAATGAGATTTACGAC
modifications: Tremovirus B
B4: Yancheng osbecks grenadier anchovy picornavirus (nucleic acid)
DNA: CCTTAGGGTCTGGAATGCGTCCTTTCTGGGCACTTCCACAATCCTAAGGTAATTTTCAACGCCAGCGATGGAGCGATATCCAAAGAACCTTTATGTTTTAGTTCGTCTTGTATGTTTATAAAATATAAAATTGGGATTAGCAACCCACAAAAACATTTTTGTTATTCTCACCACATGAGAGGGTGGTTAAACCTCTTCGTAACCTATCTTGCTTGATTGGCTACTTGGGCTAGATTTAGGACAACCTCTTTAGCAAGCCTAAATTACTCCTCGTACTTGCACCTGGTAACAGGCGTACCTGGAGGTTACGGTGGCGCTAACTTGGACTTCTCGTTAATTCGTGCAAGTTTAAATGATGCCTATTTTGAATACAAGAAAGTATGATAGTAACTTAGGGCGTGAAGTTCCGCTTAACATAAGGCAGTATAAGTACTAAGATAAGGTGTAAGACCTACCTTAATAACTGTTGTCTTTTCTCATGGTCTTTCCGTGGGAGCCCTTGCTAGGGGTAAAGTTAAGTATTCTCAAATAATTTTTCATTCAAACTCTTTCTCTCTGTTTT
modifications: lipid formulation; source: /note="Description of Unknown: Yancheng osbecks grenadier anchovy picornavirus sequence"
B5: Human enterovirus C105 (nucleic acid, listed as Enterovirus sp.)
DNA: CCCCTAGGATCCACTGGATGTCAGTACACTGGTATCGTGGTACCTTTGTACGCCTGTTTTATACCCCCTTCCCCGCAACTTTAGAAGCATCAAAAGCACCGCTCAATAGTCACCACACCCCCAGTGTGGTTTCGAGCAAGCACTTCTGTTTTCCCGGTTGCGTCCCATATGCTGTGCAAACGGCAAAAAGGGACAATATCGTTACCCGCTTGTATACTACGGGAAACCTAGTACCACCATTGATTGTGTTGAGAGTTGCGCTCATCACCTTTCCCCGGTGTAGCTCAGGCCGATGAGGCTCAGAATCCCCCACAGGTGACTGTGTCTGAGCCTGCGTTGGCGGCCTGCCCTCGCCTTATGGCGTGGGACGCTTGATACATGACATGGTGCGAAGAGTCTACTGTGCTATGCAAGAGTCCTCCGGCCCCTGAATGTGGCTAATCCTAACCACTGATCCCACGCACGCAAACCAGTGTGTAGTGGGTCGTAACGCGCAAGTCGGTGGCGGAACCAACTACTTTGGGTGACCGTGTTTCCTTTATTACTTATTGAATGTTTATGGTGACAATTGTTTGATTCAGTTGTTGCCATTCTCTACATTCATTTACCCAGCATCAAACCAATTGAACTGTTACA
B6: Grusopivirus A (nucleic acid)
chain: TGCCTGAGTAGGATTGTGAATTTAGGTATGAGAGGGTTAGCCAACCCATTCTGAACCATAATAGATACGTCAATCTGAATCCATCTAAATCTATCTCTTAGGCAGTGGTGCTGAAATATTGCAAGCTACTAGGGATAGACGTGATCTGATTCAAGAACCTATCTAATGTGGTGATGAGAAGGCTAGGTTTATCCATAGTAATCCCTTGTTCTGAACAGGCAATGCACATGCTCTAGTAGGATCTCGGGCTCTGCGATTGGCTCTAAACCGACCAATCCAGGTAGAGGCACTAAGTGTAGGACTTGCCAAAATGTATTACATGCTGGTACCGACTCACTAGTCTGGAAACTCCACACTGAAAGTGACTGGGGGGGGCCCCATCACATTTGTGCTACTGCTTGATAGAGTTGCGGCTGGTCAACTTGGATTGGTATAACCAGTTGAA
modifications: lipid formulation; Grusopivirus A
B7: Apodemus agrarius picornavirus strain Longquan-Aa118 (nucleic acid)
DNA: TTACTCAGCGTAACTACTCCGGGTTACGTGATGAAGAAGAGGCTACGGAGATTCTCGGGCTACGGCCCTGGAGCCACTCCGGCTCCTAAAGATTTAGAAGTTTGAGCACACCCGCCCACTAGGGCCCCCCATCCAGGGGGGCAACGGGCAAGCACTTCTGTTTCCCCGGTATGATCTGATAGGCTGTAACCACGGCTGAAACAGAGATTATCGTTATCCGCTTCACTACTTCGAGAAGCCTAGTAATGATGGGTGAAATTGAATCCGTTGATCCGGTGTCTCCCCCACACCAGAAACTCATGATGAGGGTTGCCATCCCGGCTACGGCGACGTAGCGGGCATCCCTGCGCTGGCATGAGGCCTCTTAGGAGGACGGATGATATGGATCTTGTCGTGAAGAGCCTATTGAGCTAGTGTCGACTCCTCCGCCCCCGTGAATGCGGCTAATCCTAACCCCGGAGCAGGTGGGTCCAATCCAGGGCCTGGCCTGTCGTAATGCGTAAGTCTGGGACGGAACCGACTACTTTCGGGAAGGCGTGTTTCCATTTGTTCATTATTTGTGTGTTTATGGTGACAACTCTGGGTAAACGTTCTATTGCGTTTATTGAGAGATTCCCAACAATTGAACAAACGAGAACTACCTGTTTTATTAAATTTACACAGAGAAGAATTACA
modifications: source: /note="Description of Unknown: Apodemus agrarius picornavirus strain Longquan-Aa118 sequence"
B8: Turkey Gallivirus M176 (nucleic acid, listed as Gallivirus sp.)
DNA: CCACTCGCACTTCCTGGATAGTGCGTTAGATATGCCCGACATATCGCTTCCAGGACCAAAGCCCCCCTTTTCTCTTTCCCAACCAGCTTCGCCACTCAAGCTGTAATTCCATGTCCGGTCTTTCCGGCCTTAGTATCATGGAAATGTGGTCGTGCTCAAATGAAATTGAGTTGACATTGATCAATGAAAGTTGCACTGAACTTTGCTAAACTGGCTAGCGCCACCTGGTGTGTGCCGTTGGTCTCCTCACATGGTAACATGTGCCAACGGGCCCGAAAGGCTAGTGGGCAATTACCGCTCCAAGGGAGGGGTACCCACCCCGACCTGAACAGCGGTAATGAAGCTCACCTCCCAGGCTCTGACCCCGAGAAGTTTAGTTATTTAGTAGGTGTAATTAGTACTTGTGATTGGTCAATTTGATAGTAGTTTGAAACGTTATGGATGAATGAGTAGACCCCCTGAAGGTACCCCATTACATGGGATCTGATCAGGGCCACATTCTGCGTGTCTCCCCGCACTTGTGGTTAAAACCATGAAAGTTCATCCCAAACAATCTTTTCCTCTTCTTTTTCTTTTAGTGGTGACAACCTACTGGATTGGTGATTACCAATCTGTACTAGTGTTGTATTAAGACTTGTTGTGTGGAGAAAATGGACTCTTTCAAGAAGATTTTTG
modifications: lipid formulation

tested on: HEK293 cells; format: cell-based, human; details: circular RNA encoding Gluc with the listed IRES (UTR truncated to 675 nt) transfected into HEK293 cells; supernatant after 24 hours

Molecule | Expression (luminescence from secreted Gluc protein)
B1 | 2.12E+05
B2 | 4.92E+05
B3 | 1.31E+05
B4 | 1.57E+06
B5 | 5.49E+05
B6 | 1.09E+05
B7 | 1.90E+08
B8 | 4.37E+05
